From US20210231678A1, “ALLERGY ANTIGEN AND EPITOPE THEREOF” (FUJITA ACADEMY, priority 2020, published 2021) come the findings set out here.

The experiment concerns IgE antibody in the serum of a latex-allergic patient. Description: Immunoblotting of two-dimensional electrophoresis gels of latex proteins with patient serum. Format: binding, human. The following applies: immunoblot of 2D electrophoresis gel of latex proteins, compared with serum of non-latex-allergic subject. How it is done: Identification of antigens by immunoblotting was carried out by taking all the steps up to the step of “Second-dimensional SDS-PAGE” as described above in Example 1, followed by the steps of “Transfer to membrane”, “Immunoblotting” and “Analysis” as described below.
Transfer system: XCell SureLock Mini-Cell and XCell II Blot Module (produced by Life Technologies) Transfer buffer: NuPAGE Transfer Buffer (X20) (produced by Life Technologies), used in a form diluted 200-fold with milliQ water.
Immunoblotting of the membrane was carried out using, as a primary antibody, a serum sample from a patient with a latex allergy or a serum sample from a non-latex-allergic subject.
(1) The transferred membrane was shaken in a 5% skim milk/PBST solution (a PBS buffer containing 0.1% Tween 20 nonionic surfactant) at room temperature for one hour. […]
The immunoblots obtained with the serum from the latex-allergic patient were compared with those obtained with the control serum from the non-latex-allergic subject. For protein present in latex, in immunoblotting using the serum from the latex-allergic patient, 2 spots were detected, which are different from the spots detected when the serum of the non-latex-allergic subject was used and different from those of the known latex allergen proteins. […]
On the technique in general: A western blot detects proteins with antibodies after separation by electrophoresis.

B1: Hevamine-A (protein, listed as Hevea brasiliensis)
chain: MAKRTQAILLLLLAISLIMSSSHVDGGGIAIYWGQNGNEGTLTQTCSTRKYSYVNIAFLNKFGNGQTPQINLAGHCNPAAGGCTIVSNGIRSCQIQGIKVMLSLGGGIGSYTLASQADAKNVADYLWNNFLGGKSSSRPLGDAVLDGIDFDIEHGSTLYWDDLARYLSAYSKQGKKVYLTAAPQCPFPDRYLGTALNTGLFDYVWVQFYNNPPCQYSSGNINNIINSWNRWTTSINAGKIFLGLPAAPEAAGSGYVPPDVLISRILPEIKKSPKYGGVMLWSKFYDDKNGYSSSILDSVLFLHSEECMTVL
B1: the “specific binding to IgE antibodies from allergic patients” value is on record as “specifically bind to IgE antibodies from allergic patients”.

B2: Citrate-binding protein (protein, listed as Hevea brasiliensis)
chain: MKMKRSPYCFCCSFALLLLVSFLKDRHFCSADPTDGFTEVPLTEDNFVIQKPYDKPLNDRYSYKNGIRRLWVYENDKPFKVGSPTRPRTEIRIKGHDYSSGVWQFEGQVHVPEGTSGVTVMQVFGAVNKATALQLRVYNGDLKSYKSNSVATDIYNKWLRVNVIHKVGKGEITVFINGQQKLVVNDDGPAEHYFKCGVYAAPDGSSNYMESRWKNIKLYKSDNKLEGCNNNHGTWLVQ
Regarding B2, the “specific binding to IgE antibodies from allergic patients” value is given as “specifically bind to IgE antibodies from allergic patients”.
